We go through one substance from article PMC11306785.

In this assay the target is FLAG-PPM1G-YLmut (human) (UniProt O15355). Briefly: co-IP; anti-FLAG affinity gel (25 μl), 1-2 mg lysate of transiently transfected HEK293H cells, 1 h at 4°C, lysis buffer 50 mM HEPES-KOH pH 7.5, 50 mM KCl, 2 mM MgCl2, 2 mM EGTA, 5% glycerol, 0.5% NP40; partners detected by Western blot; in Figure 3B cells treated with DMSO or PP242 for 2 h. On the technique in general: Immunoblotting shows a protein as a band on a membrane.
Sequence of UniProt O15355 (O15355 whole entry Y85A/L90A): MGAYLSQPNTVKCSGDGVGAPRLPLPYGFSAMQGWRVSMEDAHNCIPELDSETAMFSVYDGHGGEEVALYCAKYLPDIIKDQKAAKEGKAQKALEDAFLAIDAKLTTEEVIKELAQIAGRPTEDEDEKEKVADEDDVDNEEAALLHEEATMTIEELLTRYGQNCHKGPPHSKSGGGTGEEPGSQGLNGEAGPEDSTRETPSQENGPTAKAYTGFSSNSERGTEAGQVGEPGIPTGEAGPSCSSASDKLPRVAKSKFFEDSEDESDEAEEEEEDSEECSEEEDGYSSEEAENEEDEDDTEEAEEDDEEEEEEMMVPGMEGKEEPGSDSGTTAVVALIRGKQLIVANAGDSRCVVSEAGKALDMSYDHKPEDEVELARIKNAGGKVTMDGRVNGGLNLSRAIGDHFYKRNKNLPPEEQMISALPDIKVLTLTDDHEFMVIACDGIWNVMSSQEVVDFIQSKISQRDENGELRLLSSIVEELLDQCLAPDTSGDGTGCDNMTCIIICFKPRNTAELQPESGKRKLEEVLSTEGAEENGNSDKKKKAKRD

In turn, “endogenous eIF4E (from UniProt P06730 1-217) (natural protein)” had a percent decrease of binding against wild-type PPM1G of 80%.
